The DeepSol protein solubility set

Assay: soluble on expression in E. coli; label from the status in PepcDB or PDB records

Question: For “MAHHHHHHMGTLEAQTQGPGSMSVSAAPSATSIDRYRRITKLGEGTYGEVYKAIDTVTNETVAIKRIRLEHEEEGVPGTAIREVSLLKELQHRNIIELKSVIHHNHRLHLIFEYAENDLKKYMDKNPDVSMRVIKSFLYQLINGVNFCHSRRCLHRDLKPQNLLLSVSDASETPVLKIGDFGLARAFGIPIRQFTHEIITLWYRPPEILLGSRHYSTSVDIWSIACIWAEMLMKTPLFPGDSEIDQLFKIFEVLGLPDDTTWPGVTALPDWKQSFPKFRGKTLKRVLGALLDDEGLDLLTAMLEMDPVKRISAKNALEHPYFSHNDFDP”, which “soluble on expression in E. coli” value is on record?
Answer: soluble

Question: For “MAHHHHHHMGTLEAQTQGPGSMTAASSSAPTLGIIRLEHAKGLDLPAYETAGSAGMDLRAAVAEDRQIVLLPGRRTLVPTGLILEIPQGYEVQIRPRSGLAFKNGITCLNTPGTIDSDYRGEVKVLLINLGDDDFRIERGMRIAQAVFAPVIQPKIEERAKISETARGAGGFGSTGTA”, which “soluble on expression in E. coli” value is on record?
Answer: soluble

Question: With “MAHHHHHHMHDRIFAFAQQKVGLTAEQAECLSRKYWLNYGLSLYGYVKEYNVDAKEYSDFVHQCSYDKLHYNKPLIDMLLIMQYAPEAARGHDGPRSTNIDHLYYFTNANHSHARNVLDAQGLRPIFTRPRPVGLPVKENHPASEQAGAEDQVEWLGFSYEDQWQLTHPEIANKPMRQAYEAIYKAIEDQVAEDAALVATTTTAGSGSAFASSSASRNSDIAEEVKNKRARLRPENFVMVDDSLMNIDAPLELGWSAVWYAHDTQELPTDVKDNASAPLYAAAVASGRLQVIRNILELRAAVERIREVNSRSASS” as the sequence, how does the “soluble on expression in E. coli” value read?
Answer: not soluble

Question: With “MAHHHHHHMHTNTMEVVVKHMGAAFSVAVIPVLKDNYTYIIHDKTTNTMAAVDVSADTTPIVDYVERIRRSIDERGAGAMSFSTIFSTHKHWDHAGGNVVLPKALKAAGAFRIIGGVNDNISGVTQTVREGDRLSLGALQVEVLEAPCHTRGHVLYKVYHPQAEKDGVALFTGDTMFVGGIGAFFEGDAAHMCRALRKVYNLHHNATDKEEADRRTFVFPGHEYTVNFLQFARDTIPPAHPDATFIASQLERYKESVAQRKPTVPSTLAEEKRQNLFLRTCDESFVREMKHGDTAETLMQHLYDTCP” as the sequence, how does the “soluble on expression in E. coli” value read?
Answer: not soluble

Question: With “MAHHHHHHMIHEMCFQELSDSILPAHNGEVALMLATGSPFTDAMTTAAPQQDVWGSSLFSLPELGTDLHSEVSQQNIEKSGSNLNCELQTASHVCNLAPVTFKEEQNKTRITESNTTFGPTPSMHCLSFGSVNAQSNIPSIANSTPNPLACSMVCTSQAPQLSFSSLMSIGNTTVPANSSSTTNGLAYQQASPVATVSNGIPAFFTTAQNGGNVVMFAPSNSQQTLCIPTPVPTMIPYYVIAPPQHTVEVNGTMAYSSLSTAPQSMPPVMCGPWTTNTGSVVGSGAPTPVSVSSASGVMPQTFVTSVTTKPSQPVSFSFPSGDSNQNSASASSIIPLCADGSGNQKAPPRGSPPSYDSLRIQITKRRQPSGRQRSGTNVHGSLQGICSYYSYNLSAALKQYEHPDFHVAKPVEQVLPVFVQMFPCELRDRTIIVLNRVVEATCGPDIATVVGIEPRSETSFITLIRTNDVWHLIHKLRCRVLMDRHGFWYAENMEQYLRLKEYCESVRRLPQQIRHFQTDGLPCMPLVVELSRSVNAASVTSLPAPPSFDEVAPIATMERHGRVATLTGSNEDGSSSPRETGEVINAAAVPLPSGVGRV” as the sequence, how does the “soluble on expression in E. coli” value read?
Answer: not soluble

Question: Which “soluble on expression in E. coli” value does the source give for “MAHHHHHHMITSINVIHELLTTIYCRIFSRKRKDIYKYDVLLYLQDYYYFDVIKRVSDDIKELDDDSITIEINSNEYEVILNGDKSSSFFNHTFENFCIHRGYDIIKDKTYSNEYEKRIDFLHELLCDLLCLLLNENNEKKGKEKEKEEKKNNMNKNMNYNKERVINKMYHNNNHLFKKFWENIQDILKEINILNENKYVEDINEENIKDILYIQKEKLIKNEDIIIKKNVDINKITLLNNLIEKYNNEYKYRFYYIFLNNYLTIQTMFTSNMIYLYSYEIQNIIHKIIKMKINLYQPLTIYDVLAFQYDQIMFHKSSYMNLISPVKKIKILNNIVERGGDPDEFSKKVIIKDVINANISLKAKFNKARTQNDNNWGNNKYKVRNYYDNNRR” here?
Answer: soluble

Question: With “MAHHHHHHMKALVFLEVEESATGSNTARSTATQMHALFAGLVEMSMHVYLEKDASLAAASGAAEARVLLLSTVVKDLLSVREQSRSSPAQYVRYVQRMLIARTPVVPYITTQLLQDCQSQTALLTTSHGPTVLGAKRGDPAECFSVVHPRRYR” as the sequence, how does the “soluble on expression in E. coli” value read?
Answer: not soluble

Question: Which “soluble on expression in E. coli” value does the source give for “MAHHHHHHMKCFLIVDAQNDFLPTGSFNSRDDYMDTLNKINAIRLRLHNCTEKDLLKLSNCKHLMKYQPDKLLKENIVQYHQCNNDIDDDEREGDILIFPTDHRVMTCLSNRLSASNICSDLHKQTAQGTANGVERIPNNNNNGFSHTKEGTSHNGTHMHNHHPDESHQKNVETNDVETNNLARRNRSKESTNSENAKFALNILSVDYHPPCHISFAETHRILFEQIKRNKGTKNSSAEINIDRVTELSSHAQVNSSVASEEEAEGAHAEEAECDDEGTPSLDHTNEADGGEVQEPPQADLLQSAFLKKNKIFNLTDVMKNIQKIKSTRYIYKNVNSVSDIKEYSKLNFLNEWIDVWPIHCVRNTPGCKVHPNLIRHINDIVIKKADTENHDSHTIFENSEINQKILNLLKKQNIKSVYICGFIFEYCVKETALSFFNLGFDTYIVEDATAYLFGREEDKDNLKKKGIKFVNSSTMFA” here?
Answer: not soluble

Question: With “MAHHHHHHMKFDKRECINVDLTSQISEQDVTQSVSKGEKKRDSLPQNEKESELSAEKESQMSQPKADEANLKRENSPLSEPNRKGTSVNKKNDCETSHTDKETNLKEYYKDLPTVIIVIGMAGSGKTTYVGSLYNYLKVEKKKKVYTMNLDPAVKYVQYPVNIDIRDSIKYHEIMKEYKLGPNGAIMTCLNLFATRFDKVIEILEKRKNKLHYIIVDTPGQIEVFNWSASGNIILETLSVSFPVVINYIIDTVRCERPITFMSNMLYACSVLYKARLPFLACFNKVDIIKHDKCIEWMKDYDSFNDDVIHDESYMASFSRSCALMINEFYEGIKTVGISSKTNEGFNSILKNLELLKEEYINEYVTSIEKQMKRIKRKKEKDIKLKMENLLIEKQKDLSSSKNKSVN” as the sequence, how does the “soluble on expression in E. coli” value read?
Answer: not soluble

Question: For “MAHHHHHHMKKACKLASECLKLCLENSKEGITTDIIDNMAYDFYIKNNAYPAGLNFHSFPKSICASPNEVVCHGIPNLRKLQRGDIITYDCTVFLDGVFGDCAGTVGIGEISERHKKLMDVSKECLYKAISICRDGQLFSEIGRIITEHANKNGFNVIKDFCGHFIGTHMHMYPLIEHHYPNSHNNHRMKKGQIFTIEPILSEGSINIYTWKDKWTVCTNDNSFCSQWEHTILVLDNYAEILT”, which “soluble on expression in E. coli” value is on record?
Answer: not soluble

Question: For “MAHHHHHHMKKKGCHSDRKHCQKHVQAELCLFILHSVLRKCPNKMVHSILQNSHGNIRKKFEISLKHETSTPAPQKRRREVLLKRKTNSKRGNRA”, which “soluble on expression in E. coli” value is on record?
Answer: not soluble

Question: For “MAHHHHHHMKKNFPQSYNFFPLTWILPNEISDFKNYFKKESGSKTYIVKLKNSCQGKGIYLTKTLDNINKYDSCVIQKYIHKPLLINGLKFDIRLYVLVTGCDPLRIFLHEDGLVRFSIEKYKLPKSKNLKQVNMHLTNFSINKKSDKFENSPNPDDATMGHKRSWKAFLQKLKEEGLPMDSVMKRIEHMIVKTICSIQPELKHYYNSAHISDYSNSMCFEVLGFDILLDYKLKPWLLEVNHSPSFATSSLVDEKVKYAVIRDTLNMLYMHSKYRHIHIQEYLNLQKFRKKYSDVL”, which “soluble on expression in E. coli” value is on record?
Answer: not soluble

Question: Which “soluble on expression in E. coli” value does the source give for “MAHHHHHHMKRENVSFPHAQSNVVSNLDGNTLLNDSLVQQSCSPTESKEDVKTEYDSFVDAPVIPLTEKFDDNYSQPVSTVNPRDDSIKCEMDVLPASSLTSVCNRKVIHGEKVDNDRVKIVRDWLLMPVLSQDSDFEGDGDDFIDTLLHIAEDKMYLYGFYERLGQTELVTTRRINNRKRSRGSNGISHATGNQGAQAPVMATSPPQVLPFSFVNWLPNSGKGRCDPERVHQQTISSDAILCSGEKYTLCRYALSSGKLRKECADPYQFLTAKLQEIRHCMEEELMGDAKNSNEKKTGVTDY” here?
Answer: not soluble

Question: Which “soluble on expression in E. coli” value does the source give for “MAHHHHHHMKWSAVCLLKRDFDAWAYSINWPQRKSHLPLLGSVSLTVEDIKFAYNAWCLLRLAMFFGTGHPKILSPLVNTTPSMDIMYGGNRLFYMHAEVGASLSRHKPKVALTPSHPDAQPVQSFPWRKVIREAGERRTGNEDCDGGVEIVLGMENGLSENVVSQCDYCLYIPQYGSIGSLSMISAMAIALHSAASAHVDQYMRDDDRVSPCSSRGHMPLSNGSLKVTKGNNLPHETNLLSLSNVEIAEILRARRMSYPMQLSVMVYNEFGDRNIGAIMRNANVFNCEQMIVLHRRKFNRRGALGTQHLIKTLFCSGVDDAQCQKSLEGYTIWLLYQYYPYLKIYEDPNGDEDATFIRPESTLLQEWLQGSYGMNPDHPMMNFHASHMIGTDVYLDDSDSVHAAVRHAANEGYRGIVLVVPEEGASFQRDIVKKARRIAYVVHPDRLARNVQRGLNGALSSAIALERLRTAIDGLQ” here?
Answer: not soluble

Question: Which “soluble on expression in E. coli” value does the source give for “MAHHHHHHMLETQHLHTHSGRLIPPPPRRTPRRKSSVCRTPTRRHNPAESGLSASSKTTRSDVYECRMAPVRGRRESHDSTPGRPRAPEDVNYARGRSMNERPAPSKPQCAIPSKNGRLEESRASTLAVDRERFSQTRWGRSDEIISQSPLAGRSHSLREGEFCDPQALTMRLRHSLSRGYSPQCGHPTQAVVGTELAPPMPRLQGAYGTSKNRYRKTIERFIECQPTNTQKEMQSMLEEYRGRENELCEALSVAYSDSWEASVRGNDTIIQSHKNDNCSKFALNESPGMPEMKDFPRVGNGKGHFDSMNNGECNHNATAENHRQRMTKPTSSSHSTPSRFQDSHQNVDCLRSFSDVATPRRNEGINLSKSAEKERYDEDTSPHLRNGSSGGVNVPLSLGIILEQGETSPRSGGMLTPPIPADLLAR” here?
Answer: not soluble

Question: With “MAHHHHHHMLKKFSPLSFMVLQKRYNKSEQKIFDKIKNIINSNKNLRHTDDEKDKIEIINIDNEIINKENISFKCNIINEDSTKNENKKDNIDEMTNVNIYDDYFNINDEYNNVMSNDNDNVDIKSFIRETVDYYKSLQLKKKEDHLNVLNVKKKDYSNIKEYYNKNEEIKEIVQDNNFIWNNKNYDKKNIHSGFHSDIIYYDNYDTTKSKHNQNIQNGQNIQNGQNIQNGQNIQNNQNNQNIQNIQNNQNNQHCHNSTHEKNCGSYNFLTPAQVFFENNKEKLIQESYKYYKERENNINKEDYLYDENEGYYNYANMKTPIIRPNDKEGFLFNYEDDDYNNNDDEGEDDMTLEKGIMPTIEQIVCILKHEKVKDIKVIDLDKCGRRDIGMFLILCTGNTAKHNKKVGKLISKIFIDLEIPYISNVVYCYCNKFDDWIITHCGPLKINIVTKELRNLYDIENLFLYPHEHFDSTNFPSFFDYTPGIPPPYLVRSNASMDSYKNDDIYTKFLTEK” as the sequence, how does the “soluble on expression in E. coli” value read?
Answer: not soluble

Question: With “MAHHHHHHMLLAIVRDLLQLFRPYAAALHPETTQVWFSVRDTPLSWLYPAGAVKDYVNECVREERAAHLSASSPSSPPLSSAAALLQSHLCTILSEPLELSFHIHSLTKGSSLARTVPLYINYDRLEEHIRMEVKQAHKAAYTVLYGNYAIYQREAESALQAAVGLALYRPFDAAAQEQLQQQRYRDPGSSGSGGAGVGNGGYSSSNSPGGGYSAPFAFTSPYLLVEYQQLLRGLLTPRPHVAYLIRIGFPFAYRGAAGRSESGYLQYDAHRVSAAPALALSVTTTEAAAAPTMEPEQLPLGLLLWRLFRAPVLRWKAQQLQQHPTDNTSPSTAAHASATVLSEVERTYQQLLRTLAPYYADPPRCATDGLEQQEPLMTSTPPEPPAWAAWERAMVQAFMRDYEERPEKCGLGFEFAEAAATSAASPNAVRRVRFMVQGIQPPLTTPGSFLEAHLSSSDRAIFVTVQV” as the sequence, how does the “soluble on expression in E. coli” value read?
Answer: not soluble

Question: With “MAHHHHHHMLLSVLHAPRQASIAAPLHKVQSCAYAAPDTVSAVLADCLGKDIAPVLRYLTAFATPPVSKPTSHQSHHLAASTRVLRHALVLLLYSFVTTWRGAPPRETPPPPGAIALTREERALALELCRCVAALNESDTGSESIATGERRGDTSAQAHSRDARAEATGSHVTSLEAVTGAQFALVRDALADMLAPDHHSDGSAASTPVRARDSVAGNGPLWRACEAWIAGAVGTAVGASVAPPSSPFAGITGVRMKEEEAVDLLERVNDQLNQIARGGAVNAASRQCGNSAAMP” as the sequence, how does the “soluble on expression in E. coli” value read?
Answer: not soluble
